Molecular target: recombinant caprine β-lactoglobulin (unlabelled) (caprine) (UniProt P02756)
Test: AUC

recombinant caprine β-lactoglobulin (unlabelled) (from UniProt P02756 19-180) (natural protein)
stoichiometry N: 2
